This is an account of results in patent US20030200555.

This data set addresses T1, coumarin-CO-REVNFEVEFR
T1 chain: REVNFEVEFR

B1: BACE 1, soluble (transmembrane domain and cytoplasmic extension excluded) human protein produced in a baculovirus expression system (protein)
chain: TQHGIRLPLRSGLGGAPLGLRLPRETDEEPEEPGRRGSFVEMVDNLRGKSGQGYYVEMTVGSPPQTLNILVDTGSSNFAVGAAPHPFLHRYYQRQLSSTYRDLRKGVYVPYTQGKWEGELGTDLVSIPHGPNVTVRANIAAITESDKFFINGSNWEGILGLAYAEIARPDDSLEPFFDSLVKQTHVPNLFSLQLCGAGFPLNQSEVLASVGGSMIIGGIDHSLYTGSLWYTPIRREWYYEVIIVRVEINGQDLKMDCKEYNYDKSIVDSGTTNLRLPKKVFEAAVKSIKAASSTEKFPDGFWLGEQLVCWQAGTTPWNIFPVISLYLMGEVTNQSFRITILPQQYLRPVEDVATSQDDCYKFAISQSSTGTVMGAVIMEGFYVVFDRARKRIGFAVSACHVHDEFRTAAVEGPFVTLDMEDCGYNIPQTDESTLMT
For the protein B1, the Km entry is “The Km of the substrate is greater than 100 µM and cannot be determined due to the limit of solubility of the substrate”.
